Assay results published in the supplement of paper PMC10126150.
± gives the standard deviation of the averaged measurements.
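Also: ATP exposure 15 min at 22 °C before imaging.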

What follows are sequences tested on ATP (assay: switch fluorescence ratio, 500 uM ATP over buffer (Cy3 cluster intensity, sum of 5 cycles each) (fold (ratio)); higher = stronger signal-on switching upon ATP binding; sequences stand for … in TCGTCGGCAGCGTCAGATGTGTATAAGAGACAGTTTTTTTTTTTTTTTTTTTTTTTTT…TC). Conditions: aptamer strand: ATP DNA aptamer (quencher-CACCTGGGGGAGTATTGCGGAGGAAGG + anchor), 100 nM annealed; ATP concentration: 500 uM.
Summary of the method: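 Five buffer/ATP imaging cycles were run on Cy3-labelled switching-strand clusters on a modified Illumina MiSeq flow-cell, with NaOH stripping and re-annealing between cycles. In each cycle, clusters annealed to 100 nM quencher-labelled ATP aptamer were imaged in selection buffer, then after 15 min with 500 uM ATP at 22 °C. Per cluster, the fluorescence ratio is summed target-cycle over summed buffer-cycle Cy3 intensity, averaged per switch-domain sequence. Only clusters within 100-1000 RFU were kept.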
CTTCAGGTTG showed a switch fluorescence ratio of 1.016 ± 0.0024. With CTTCCTGCCA the switch fluorescence ratio was 2.69 ± 0.36. CTTCCTTTTT was tested, and the switch fluorescence ratio was 3.13 ± 3. CTTCGCACGG gave a switch fluorescence ratio of 3.54 ± 0.37. CTTCGTACAG showed a switch fluorescence ratio of 1.02 ± 0.014. In the case of CTTCGTCTCG, the switch fluorescence ratio is reported as 1.08 ± 0.072. CTTCGTGGCC gave a switch fluorescence ratio of 1.04 ± 0.036. For CTTCTAGGCA, the switch fluorescence ratio was 1.04 ± 0.032. Work on CTTCTATAAC yielded a switch fluorescence ratio of 1.07 ± 0.02. Sequence CTTCTGGGGC has a switch fluorescence ratio of 1.04 ± 0.055. For CTTGAAAAGC, the switch fluorescence ratio was 1.05 ± 0.021. CTTGAAAAGG showed a switch fluorescence ratio of 0.9995 ± 0.0038. CTTGAAAGAT showed a switch fluorescence ratio of 0.99786 ± 0.00087. Sequence CTTGAAATTC has a switch fluorescence ratio of 1.04 ± 0.017. CTTGACTTTT was tested, and the switch fluorescence ratio was 1.015 ± 0.0014. For CTTGGGGGGA, the switch fluorescence ratio was 0.997 ± 0.029. Sequence CTTGGGGTGC has a switch fluorescence ratio of 1.07 ± 0.094. In the case of CTTGGGTTTG, the switch fluorescence ratio is reported as 1.06 ± 0.14. CTTGGGTTTT showed a switch fluorescence ratio of 0.9548 ± 0.0091. In the case of CTTGGTCGGC, the switch fluorescence ratio is reported as 1.068 ± 0.0026. CTTGTAAAAT gave a switch fluorescence ratio of 0.993 ± 0.014. CTTGTAAGAA gave a switch fluorescence ratio of 1.02 ± 0.05. With CTTGTAGGTG the switch fluorescence ratio was 1.36 ± 0.48. CTTGTATACG gave a switch fluorescence ratio of 0.9888 ± 0.001. CTTGTATAGT was tested, and the switch fluorescence ratio was 0.9947 ± 0.0062. CTTGTATGAG gave a switch fluorescence ratio of 0.989 ± 0.012. CTTGTGAAA showed a switch fluorescence ratio of 1.009 ± 0.0082. Sequence CTTGTGCAAG has a switch fluorescence ratio of 1.03 ± 0.024. With CTTGTGGCTT the switch fluorescence ratio was 1.034 ± 0.0061. CTTGTGGTGT gave a switch fluorescence ratio of 0.973 ± 0.019. CTTGTTGGGT was tested, and the switch fluorescence ratio was 0.999 ± 0.033. In the case of CTTGTTGTAT, the switch fluorescence ratio is reported as 1.01 ± 0.02. Work on CTTGTTTGGC yielded a switch fluorescence ratio of 1.02 ± 0.045. Sequence CTTGTTTGGG has a switch fluorescence ratio of 1 ± 0.039. CTTTAAAGTT showed a switch fluorescence ratio of 1.09 ± 0.18. With CTTTAAGGGC the switch fluorescence ratio was 0.986 ± 0.022. In the case of CTTTAATCAA, the switch fluorescence ratio is reported as 0.991 ± 0.013. CTTTAATGTC gave a switch fluorescence ratio of 1 ± 0.025. With CTTTAATTCG the switch fluorescence ratio was 1 ± 0.028. CTTTAGCCGG gave a switch fluorescence ratio of 1.02 ± 0.049. CTTTATGGTT was tested, and the switch fluorescence ratio was 0.99 ± 0.065. In the case of CTTTATTCGT, the switch fluorescence ratio is reported as 0.9896 ± 0.0096. Sequence CTTTCAATGG has a switch fluorescence ratio of 1.07 ± 0.015. For CTTTGGCTTC, the switch fluorescence ratio was 0.9876 ± 0.0039. CTTTGGGGGG gave a switch fluorescence ratio of 0.982 ± 0.025. With CTTTGGGGGT the switch fluorescence ratio was 0.979 ± 0.019. CTTTGGGTTG showed a switch fluorescence ratio of 1 ± 0.02. CTTTGTAGCC showed a switch fluorescence ratio of 1.05 ± 0.012. With CTTTGTCGCT the switch fluorescence ratio was 1.01 ± 0.029. CTTTTAAGGC gave a switch fluorescence ratio of 1.1 ± 0.15. Work on CTTTTAAGGT yielded a switch fluorescence ratio of 0.984 ± 0.03. For CTTTTACTAA, the switch fluorescence ratio was 1.024 ± 0.0071. CTTTTAGTGT gave a switch fluorescence ratio of 0.963 ± 0.032. CTTTTATTGG gave a switch fluorescence ratio of 1 ± 0.029. In the case of CTTTTGAAGT, the switch fluorescence ratio is reported as 0.983 ± 0.01. CTTTTGAGAC gave a switch fluorescence ratio of 1.02 ± 0.053. CTTTTGAGGG showed a switch fluorescence ratio of 0.974 ± 0.018. Work on CTTTTGTAAT yielded a switch fluorescence ratio of 1.01 ± 0.014. Work on CTTTTTTGAT yielded a switch fluorescence ratio of 0.9831 ± 0.0061. Work on CTTTTTTGCC yielded a switch fluorescence ratio of 1.02 ± 0.019. Sequence GAAAAAAAGG has a switch fluorescence ratio of 0.982 ± 0.051. For GAAAAAACGT, the switch fluorescence ratio was 1.05 ± 0.038. For GAAAAAGCAA, the switch fluorescence ratio was 1.14 ± 0.054. Sequence GAAAAAGCAT has a switch fluorescence ratio of 1 ± 0.016. In the case of GAAAAAGTGA, the switch fluorescence ratio is reported as 0.975 ± 0.054. In the case of GAAAAAGTGG, the switch fluorescence ratio is reported as 0.998 ± 0.014. GAAAAATGCC gave a switch fluorescence ratio of 1.05 ± 0.05. For GAAAAATTAA, the switch fluorescence ratio was 0.993 ± 0.026. GAAAAGCAGG gave a switch fluorescence ratio of 0.989 ± 0.025. With GAAAAGGGCG the switch fluorescence ratio was 1.01 ± 0.022. In the case of GAAAAGGGGT, the switch fluorescence ratio is reported as 1 ± 0.028. In the case of GAAAAGTATC, the switch fluorescence ratio is reported as 1.001 ± 0.0022. For GAAAATAGGT, the switch fluorescence ratio was 0.99 ± 0.024. Sequence GAAAATTGAG has a switch fluorescence ratio of 1 ± 0.015. GAAAATTGCC showed a switch fluorescence ratio of 0.978 ± 0.075. For GAAACAGATA, the switch fluorescence ratio was 1 ± 0.012. GAAACATGCT showed a switch fluorescence ratio of 1.01 ± 0.052. GAAACGGGGG showed a switch fluorescence ratio of 1.013 ± 0.009. With GAAACTGGAA the switch fluorescence ratio was 0.997 ± 0.016. GAAACTTGCA showed a switch fluorescence ratio of 1.075 ± 0.0066. GAAAGCATAT gave a switch fluorescence ratio of 1.01 ± 0.034. GAAAGCCCGT showed a switch fluorescence ratio of 0.989 ± 0.021. In the case of GAAAGCTGAG, the switch fluorescence ratio is reported as 1.18 ± 0.033. GAAAGGGATG showed a switch fluorescence ratio of 1.03 ± 0.029. GAAAGTAACC was tested, and the switch fluorescence ratio was 1.05 ± 0.021. GAAAGTATGT was tested, and the switch fluorescence ratio was 1 ± 0.024. Sequence GAAAGTCGGA has a switch fluorescence ratio of 0.998 ± 0.066. Sequence GAAAGTGCTA has a switch fluorescence ratio of 1.07 ± 0.03. GAAAGTGTGT was tested, and the switch fluorescence ratio was 1.004 ± 0.0092. GAAAGTTAAA gave a switch fluorescence ratio of 1.038 ± 0.0091. With GAAATAATAA the switch fluorescence ratio was 1.01 ± 0.011. For GAAATAGGGC, the switch fluorescence ratio was 0.997 ± 0.0058. GAAATATTTT showed a switch fluorescence ratio of 0.996 ± 0.05. GAAATCATGT was tested, and the switch fluorescence ratio was 0.977 ± 0.023. GAAATCGTTT gave a switch fluorescence ratio of 0.9949 ± 0.0082. Sequence GAAATGATTC has a switch fluorescence ratio of 1 ± 0.024. Sequence GAAATGGAGG has a switch fluorescence ratio of 0.995 ± 0.027. For GAAATGGGTG, the switch fluorescence ratio was 1.04 ± 0.078. With GAAATTCCGA the switch fluorescence ratio was 1.85 ± 1.1. With GAAATTTAAG the switch fluorescence ratio was 1.02 ± 0.035.
